Laboratory results taken from US20230366033A1, “METHODS FOR TREATING CANCERS WITH INHIBITORS TARGETING THE ROLE OF GRB2 IN DNA REPAIR” (Board of Regents, The University of Texas System, priority 2020, published 2023).

What was measured:
[1] = molecular target: GRB2 K109R mutant, bacterially expressed and purified (UniProt P62993); assay: MST, 100 nM Atto488-labelled K109R GRB2, peptide titrated
[2] = molecular target: GRB2-SH2 domain, purified, Atto488-labelled (UniProt P62993); assay: MST; 100 nM Atto488-labelled GRB2-SH2 domain, peptide titrated; pEGFR phosphopeptide, comparator; cited to a figure and Ahmed et al., 2015
[3] = molecular target: RING2 E3 ubiquitin ligase, endogenous, in HEK293T cells (UniProt Q99496); assay: GRB2 immunoprecipitation-mass spectrometry in HEK293T cells (mean of three data sets) [panel G]
Sequence of RING2 E3 ubiquitin ligase, endogenous, in HEK293T cells (Q99496 2-336 limits assumed): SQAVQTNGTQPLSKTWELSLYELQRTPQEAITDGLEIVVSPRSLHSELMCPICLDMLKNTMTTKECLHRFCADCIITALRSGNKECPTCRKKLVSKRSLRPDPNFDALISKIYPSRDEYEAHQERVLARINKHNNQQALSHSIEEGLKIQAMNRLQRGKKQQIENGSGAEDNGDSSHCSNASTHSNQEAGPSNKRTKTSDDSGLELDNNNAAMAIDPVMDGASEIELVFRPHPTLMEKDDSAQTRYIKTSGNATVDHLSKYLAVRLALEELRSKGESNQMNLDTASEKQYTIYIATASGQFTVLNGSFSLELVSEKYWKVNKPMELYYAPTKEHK

[4] = molecular target: HERC1 (human) (UniProt Q15751); assay: as above
Sequence of HERC1 (human) (Q15751 whole entry): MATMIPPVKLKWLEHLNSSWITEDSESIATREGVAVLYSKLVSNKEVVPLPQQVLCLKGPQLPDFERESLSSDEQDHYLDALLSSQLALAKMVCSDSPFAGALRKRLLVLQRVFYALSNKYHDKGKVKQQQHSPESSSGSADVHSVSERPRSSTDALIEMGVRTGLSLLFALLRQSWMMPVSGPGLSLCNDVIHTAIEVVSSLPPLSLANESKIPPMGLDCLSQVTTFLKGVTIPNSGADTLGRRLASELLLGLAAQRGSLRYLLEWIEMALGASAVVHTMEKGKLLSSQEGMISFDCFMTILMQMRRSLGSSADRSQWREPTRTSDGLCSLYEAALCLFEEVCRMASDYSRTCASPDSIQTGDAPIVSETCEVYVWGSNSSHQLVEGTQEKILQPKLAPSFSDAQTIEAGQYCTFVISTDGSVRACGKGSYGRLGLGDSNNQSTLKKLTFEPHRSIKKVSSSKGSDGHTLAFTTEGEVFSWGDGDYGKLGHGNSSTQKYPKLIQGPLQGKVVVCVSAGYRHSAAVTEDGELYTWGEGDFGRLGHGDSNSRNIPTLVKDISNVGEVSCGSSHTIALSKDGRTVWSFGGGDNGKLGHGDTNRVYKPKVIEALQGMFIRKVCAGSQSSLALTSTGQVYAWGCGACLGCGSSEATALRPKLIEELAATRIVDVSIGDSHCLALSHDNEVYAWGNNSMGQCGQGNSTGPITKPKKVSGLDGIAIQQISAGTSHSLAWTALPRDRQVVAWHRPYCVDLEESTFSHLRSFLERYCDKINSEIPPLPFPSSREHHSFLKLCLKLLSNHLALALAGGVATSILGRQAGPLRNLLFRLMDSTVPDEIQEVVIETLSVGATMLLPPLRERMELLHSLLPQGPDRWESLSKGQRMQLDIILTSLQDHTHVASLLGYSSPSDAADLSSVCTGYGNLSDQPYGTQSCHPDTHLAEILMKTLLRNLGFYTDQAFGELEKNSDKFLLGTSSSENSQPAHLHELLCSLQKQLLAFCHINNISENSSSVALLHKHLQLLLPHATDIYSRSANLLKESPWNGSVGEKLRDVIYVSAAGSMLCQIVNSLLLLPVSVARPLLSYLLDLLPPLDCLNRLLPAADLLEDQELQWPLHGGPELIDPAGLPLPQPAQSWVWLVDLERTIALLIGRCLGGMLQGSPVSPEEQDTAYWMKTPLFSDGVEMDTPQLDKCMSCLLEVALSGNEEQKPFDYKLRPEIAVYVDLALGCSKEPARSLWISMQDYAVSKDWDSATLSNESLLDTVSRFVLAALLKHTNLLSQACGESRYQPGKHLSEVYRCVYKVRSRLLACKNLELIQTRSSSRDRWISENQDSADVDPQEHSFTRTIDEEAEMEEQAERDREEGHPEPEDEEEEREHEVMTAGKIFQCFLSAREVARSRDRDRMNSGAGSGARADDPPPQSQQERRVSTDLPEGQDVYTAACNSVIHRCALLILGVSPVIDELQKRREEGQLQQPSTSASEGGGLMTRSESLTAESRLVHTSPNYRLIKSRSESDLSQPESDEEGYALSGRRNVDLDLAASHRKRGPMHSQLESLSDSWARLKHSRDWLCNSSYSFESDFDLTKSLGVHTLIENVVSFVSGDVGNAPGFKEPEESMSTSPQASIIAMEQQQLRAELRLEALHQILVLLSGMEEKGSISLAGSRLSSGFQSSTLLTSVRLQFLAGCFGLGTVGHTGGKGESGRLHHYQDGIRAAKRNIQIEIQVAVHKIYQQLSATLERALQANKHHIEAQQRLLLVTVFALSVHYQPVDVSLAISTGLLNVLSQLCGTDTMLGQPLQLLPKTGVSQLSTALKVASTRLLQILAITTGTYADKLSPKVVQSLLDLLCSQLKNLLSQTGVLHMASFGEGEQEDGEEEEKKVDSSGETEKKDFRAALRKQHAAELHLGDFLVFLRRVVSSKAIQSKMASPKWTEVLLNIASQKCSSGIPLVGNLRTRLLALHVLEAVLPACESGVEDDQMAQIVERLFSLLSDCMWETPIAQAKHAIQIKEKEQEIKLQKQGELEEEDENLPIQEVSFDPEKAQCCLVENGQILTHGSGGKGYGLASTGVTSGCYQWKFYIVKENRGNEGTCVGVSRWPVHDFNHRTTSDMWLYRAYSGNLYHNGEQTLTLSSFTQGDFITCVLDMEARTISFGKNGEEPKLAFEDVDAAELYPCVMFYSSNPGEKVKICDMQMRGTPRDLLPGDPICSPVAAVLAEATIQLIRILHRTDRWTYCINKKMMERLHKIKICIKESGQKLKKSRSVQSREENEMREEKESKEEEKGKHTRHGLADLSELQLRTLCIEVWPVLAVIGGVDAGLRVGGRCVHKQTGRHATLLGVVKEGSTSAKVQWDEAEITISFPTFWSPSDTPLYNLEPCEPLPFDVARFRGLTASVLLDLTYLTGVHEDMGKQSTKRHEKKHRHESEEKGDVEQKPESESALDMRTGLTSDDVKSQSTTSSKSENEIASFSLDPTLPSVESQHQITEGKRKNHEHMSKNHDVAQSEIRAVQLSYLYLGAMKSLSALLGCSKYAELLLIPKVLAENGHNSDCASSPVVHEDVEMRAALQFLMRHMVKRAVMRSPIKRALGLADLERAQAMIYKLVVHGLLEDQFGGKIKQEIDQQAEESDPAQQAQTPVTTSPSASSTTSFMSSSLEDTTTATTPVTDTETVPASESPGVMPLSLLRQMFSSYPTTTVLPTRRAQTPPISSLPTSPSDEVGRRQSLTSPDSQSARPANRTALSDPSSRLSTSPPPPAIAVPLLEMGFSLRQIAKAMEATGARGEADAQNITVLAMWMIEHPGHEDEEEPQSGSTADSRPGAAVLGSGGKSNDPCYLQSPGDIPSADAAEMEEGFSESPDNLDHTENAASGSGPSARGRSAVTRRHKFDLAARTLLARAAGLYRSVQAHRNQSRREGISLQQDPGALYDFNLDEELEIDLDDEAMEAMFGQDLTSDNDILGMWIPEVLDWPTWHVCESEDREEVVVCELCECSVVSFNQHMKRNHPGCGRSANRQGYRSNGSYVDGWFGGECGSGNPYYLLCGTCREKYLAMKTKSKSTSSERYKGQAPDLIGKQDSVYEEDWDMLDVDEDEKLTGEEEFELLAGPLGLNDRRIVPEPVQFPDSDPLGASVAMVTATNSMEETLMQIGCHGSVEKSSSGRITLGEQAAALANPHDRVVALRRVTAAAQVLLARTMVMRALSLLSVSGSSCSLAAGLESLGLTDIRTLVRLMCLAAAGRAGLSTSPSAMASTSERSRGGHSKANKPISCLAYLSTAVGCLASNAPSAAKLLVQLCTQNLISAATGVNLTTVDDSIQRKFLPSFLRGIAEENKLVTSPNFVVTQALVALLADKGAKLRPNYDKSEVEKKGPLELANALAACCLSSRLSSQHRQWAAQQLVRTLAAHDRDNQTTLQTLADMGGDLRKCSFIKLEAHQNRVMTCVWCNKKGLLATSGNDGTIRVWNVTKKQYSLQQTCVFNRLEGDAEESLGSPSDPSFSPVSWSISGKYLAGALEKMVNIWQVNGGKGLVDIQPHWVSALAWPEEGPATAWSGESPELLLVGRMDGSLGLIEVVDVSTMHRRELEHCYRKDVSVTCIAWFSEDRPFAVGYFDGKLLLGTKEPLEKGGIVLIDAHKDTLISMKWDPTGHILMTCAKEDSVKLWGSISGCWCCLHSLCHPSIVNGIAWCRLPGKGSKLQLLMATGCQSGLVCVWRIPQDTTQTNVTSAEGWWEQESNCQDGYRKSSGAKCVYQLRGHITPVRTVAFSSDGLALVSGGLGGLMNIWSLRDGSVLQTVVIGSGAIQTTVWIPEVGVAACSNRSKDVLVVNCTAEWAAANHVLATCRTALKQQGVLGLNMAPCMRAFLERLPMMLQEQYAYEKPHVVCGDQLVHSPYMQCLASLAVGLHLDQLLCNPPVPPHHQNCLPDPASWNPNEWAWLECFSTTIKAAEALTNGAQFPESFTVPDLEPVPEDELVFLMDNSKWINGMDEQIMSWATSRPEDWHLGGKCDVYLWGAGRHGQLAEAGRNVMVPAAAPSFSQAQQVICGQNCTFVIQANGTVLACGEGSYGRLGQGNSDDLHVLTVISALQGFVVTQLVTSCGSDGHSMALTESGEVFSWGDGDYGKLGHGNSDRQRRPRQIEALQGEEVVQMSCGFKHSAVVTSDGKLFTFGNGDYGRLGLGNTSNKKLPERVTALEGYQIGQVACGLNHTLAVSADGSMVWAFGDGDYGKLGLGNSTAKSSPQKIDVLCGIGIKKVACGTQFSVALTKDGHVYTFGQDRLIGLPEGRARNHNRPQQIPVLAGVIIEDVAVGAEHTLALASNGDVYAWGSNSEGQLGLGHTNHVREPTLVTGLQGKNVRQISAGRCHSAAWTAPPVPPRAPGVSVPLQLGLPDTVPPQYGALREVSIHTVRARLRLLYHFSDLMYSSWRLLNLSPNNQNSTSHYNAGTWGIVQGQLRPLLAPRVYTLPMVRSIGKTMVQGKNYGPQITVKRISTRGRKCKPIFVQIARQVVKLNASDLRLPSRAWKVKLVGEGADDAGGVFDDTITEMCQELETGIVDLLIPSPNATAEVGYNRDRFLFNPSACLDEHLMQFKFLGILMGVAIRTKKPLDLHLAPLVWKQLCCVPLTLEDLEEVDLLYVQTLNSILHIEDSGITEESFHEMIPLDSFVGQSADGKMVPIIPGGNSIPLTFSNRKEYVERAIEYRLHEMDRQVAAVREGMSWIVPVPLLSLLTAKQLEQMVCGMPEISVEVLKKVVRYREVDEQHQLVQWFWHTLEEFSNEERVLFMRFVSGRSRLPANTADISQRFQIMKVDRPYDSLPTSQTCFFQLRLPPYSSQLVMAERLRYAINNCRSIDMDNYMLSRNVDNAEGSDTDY

[5] = molecular target: CBLL1 E3 ubiquitin ligase, endogenous, in HEK293T cells (UniProt Q75N03); assay: as above
[6] = molecular target: Histone H2AX, endogenous, in HEK293T cell extracts (UniProt P16104); assay: Strep-Tactin purification of Strep-GRB2 from HEK293T nuclear extracts, mass spectrometry (mean of three data sets) [panel A]

Kd [1] [µM] | Kd [2] [µM] | Coverage(%) [3] [%] | Peptides [3] [peptides] | Coverage(%) [4] [%] | Peptides [4] [peptides] | Coverage(%) [5] [%] | Peptides [5] [peptides] | Coverage(%) [6] [%] | Peptides [6] [peptides] | Substance
2.6 | 7.2 | – | – | – | – | – | – | – | – | Phosphorylated EGFR synthetic peptide FLPVPE(pY)INQSVPKR
– | – | 15 | 4 | 0 | 1 | 3 | 1 | 71 | 16 | Strep-tagged wild-type GRB2 expressed in cells (HEK293T; reconstituted GRB2-KO cells) (from UniProt P62993 1-217)
